Measurements taken from US20230106715A1 (BIOSION, published 2023).
Like-named read-outs stand apart in the source and are kept apart here.

How the values were obtained:
[1] = target: T1, human Siglec15-Fc protein (human); assay: competitive ELISA: biotin-labeled human Siglec15-Fc in solution, competitor coated benchmark
T1 construct: In house made; also called recombinant human Siglec15 protein with human IgG1 Fc at the C-terminus
Protocol: The abilities of the anti-Siglec15 antibodies of the disclosure to block benchmark-human Siglec15 binding were measured in a competitive ELISA assay. Briefly, the benchmark was coated on 96-well micro plates at 2 μg/mL in PBS, 100 μl per well, and incubated for 2 hours at 37° C. Then plates were washed once with wash buffer, and blocked with 5% w/v non-fatty milk in PBST overnight at 4° C. The next day, the anti-Siglec15 antibodies of the disclosure or controls were diluted with biotin labeled human Siglec15-Fc protein (prepared in-house with SEQ ID NO: 19, 37 ng/ml in PBST with 2.5% w/v non-fatty milk), starting at 80 nM with a 4-fold serial dilution, and incubated at room temperature for 40 minutes. After plate washing 4 times, the antibody/Siglec15-Fc mixtures were added to benchmark coated plates, 100 μl per well. After incubation at 37° C. for 40 minutes, plates were washed 4 times again using wash buffer. Then the plates were added and incubated with 100 μl/well streptavidin conjugated HRP for 40 minutes at 37° C. […] Finally, TMB was added and the reaction was stopped using 1M H₂SO₄, and the absorbance of each well was read on a microplate reader using dual wavelength mode with 450 nm for TMB and 630 nm as the reference wavelength, then the OD (450-630) values were plotted against antibody concentration. Data was analyzed using Graphpad Prism software and IC₅₀ values were reported.

[2] = target: T2, cynomolgus monkey Siglec15-his protein (cynomolgus monkey); assay: indirect ELISA on coated cynomolgus Siglec15-his
T2 construct: In house made; also called Cynomolgus Siglec15-his; cynomolgus Siglec15
T2 chain: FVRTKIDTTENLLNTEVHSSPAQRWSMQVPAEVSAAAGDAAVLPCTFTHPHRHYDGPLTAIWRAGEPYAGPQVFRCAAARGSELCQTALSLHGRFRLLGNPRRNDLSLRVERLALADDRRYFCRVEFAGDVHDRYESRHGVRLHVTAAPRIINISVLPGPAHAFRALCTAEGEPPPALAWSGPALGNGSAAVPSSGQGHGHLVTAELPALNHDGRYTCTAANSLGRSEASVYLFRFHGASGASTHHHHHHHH
Protocol: (§1) The anti-Siglec15 antibodies' cross-reactions to cynomolgus or mouse Siglec15 proteins were measured. Briefly, 96-well micro plates were coated with 100 μl of 2 μg/ml cynomolgus Siglec15-his protein (in house made with SEQ ID NO: 21), or 2 μg/ml mouse Siglec15-his protein (in house made with SEQ ID NO: 22) in carbonate/bicarbonate buffer (pH 9.6) for 2 hours at 37° C. ELISA plates were washed once with wash buffer (PBS+0.05% v/v Tween-20, PBST) and then blocked with 200 μl/well blocking buffer (5% w/v non-fatty milk in PBST) overnight at 4° C. Plates were washed 4 times and incubated with 100 μl serially diluted anti-Siglec15 antibodies of the disclosure or controls (starting at 66.7 nM, 5-fold serial dilution in PBST with 2.5% w/v non-fatty milk) for 40 minutes at 37° C. […] The reaction was stopped 4 minutes later at room temperature with 50 μl 1M H₂SO₄, and the absorbance of each well was read on a microplate reader using dual wavelength mode with 450 nm for TMB and 630 nm as the reference wavelength, then the OD (450-630) values were plotted against antibody concentration. Data was analyzed using Graphpad Prism software and EC₅₀ values were reported.

[3] = target: T2, cynomolgus monkey Siglec15-his protein; assay: indirect ELISA on coated cynomolgus Siglec15-his
Protocol: as §1

[4] = target: T1, human Siglec15-Fc protein; assay: competitive ELISA: coated human Siglec15-Fc, blocked ligand biotin-labeled human LRRC4C-Fc
Protocol: Serially diluted anti-Siglec15 antibodies or the controls (starting at 66.67 nM with a 5-fold serial dilution) in PBST with 2.5% w/v non-fatty milk were added to the Siglec15-Fc bound plates, 100 μl per well, and incubated with the human Siglec15-Fc protein at 37° C. for 40 minutes. Plates were washed 4 times again using wash buffer, then added and incubated for 40 minutes at 37° C. with 100 μl/well 290 ng/ml biotin-labeled human LRRC4C-Fc protein (prepared in-house with SEQ ID NO: 23). Plates were washed again using wash buffer. Thereafter, the plates were added with 100 μl/well streptavidin conjugated HRP (1:5000 dilution in PBST buffer, Jackson Immunoresearch, Cat #016-030-084) and incubated for 40 minutes at 37° C. Plates were washed again using wash buffer. Finally, TMB was added and the reaction was stopped using 1M H₂SO₄, and the absorbance of each well was read on a microplate reader using dual wavelength mode with 450 nm for TMB and 630 nm as the reference wavelength, then the OD (450-630) values were plotted against antibody concentration. Data was analyzed using Graphpad Prism software and IC₅₀ values were reported.

B1: anti-Siglec15 benchmark (ch5G12) (antibody, human IgG1, kappa, V domains shown)
VH: QVQLQQPGAELVKPGASVKMSCKASGYTFTSYWITWVIQRPGQGLEWIGDIYCGSDTMHYNEKFKNKATLTVDTSSSTAYMQLSSLTSEDSAVYYCARWWDYGSSYDYFDYWGQGTTLTVSS
VL: DIKMTQSPSSMYASLGERVTITCKASQDINSYLSWFQQKPGKSPKTLIYRANRLVDGVPSRFSGSGSGQDYSLTISSLEYEDMGIYYCLQYDEFPYTFGGGTKLEIKR
notes: ch5G12 (US 20190202912A1); also called BM; Siglec15-ch5G9
Binder B1 has an IC50 [1] of 0.338 nM, an EC50 [2] of 0.461 nM and an EC50 [3] of 0.307 nM. For the same binder, the IC50 [4] was 0.855 nM.
